Measured values taken from patent publication US20200000932A1.
Blank lines part the entries; values can stand above or below the binder they belong to.

Target: bovine submaxillary mucin (BSM) (bovine)
Test: BSM ELISA on BSM-coated wells, periodate-sensitive signal (periodate-treated wells subtracted)

EC50: 1.8 nM
B1: hSIA103 (antibody, human IgG1, kappa, V domains shown)
VH: QVQLVQSGAEVKKPGASVKVSCKASGYTFTDHAIHWVRQAPGQGLEWMGYISPGNGDIKYNEKFKDRVTMTADKSSSTAYMQLRSLRSDDTAVYFCKRSLLALDYWGQGTLVTVSS
VL: DIQMTQSPSSLSASVGDRVTITCKASQDVGTNIAWYQQKPGKAPKVLIYSASTRHTGVPSRFSGSGSGTDFTLTISSLQPEDFATYFCQQYSSFPLTFGQGTKVEIKR

EC50: 4.2 nM
B2: hSIA101 (antibody, human IgG1, kappa, V domains shown)
VH: EVQLVQSGAEVKKPGASVKVSCKASGYTFTDHAIHWVRQAPGQGLEWMGYFSPGNDDIKYNEKFRGRVTMTADKSSSTAYMELRSLRSDDTAVYFCKRSLSTPYWGQGTLVTVSS
VL: DIVMTQSPDSLAVSLGERATINCKSSQSLLNRGNHKNYLTWYQQKPGQPPKLLIYWASTRESGVPDRFSGSGSGTDFTLTISSLQAEDVAVYYCQNDYTYPYTFGQGTKVEIKR
